Source: patent publication US20160207991A1
Read-outs that look alike come from different tables or passages of the source.

Experiments:
[1] = target: human brain-derived neurotrophic factor (BDNF) (human) (UniProt P23560); test: cell-based or functional assay
[2] = target: human brain-derived neurotrophic factor (BDNF) (human) (UniProt P23560); test: cell-based or functional assay; remark: listed apart in the source

Sequence of human brain-derived neurotrophic factor (BDNF) (human) (P23560 129-247 limits assumed): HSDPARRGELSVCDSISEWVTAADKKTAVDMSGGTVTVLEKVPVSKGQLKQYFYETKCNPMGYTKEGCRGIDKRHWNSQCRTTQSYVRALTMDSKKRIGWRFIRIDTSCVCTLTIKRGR

PathHunter pTrkB assay in U2OS TrkB/p75NTR cells, 300 pM BDNF [1]: 4.4 nM
PathHunter pTrkB assay in U2OS TrkB/p75NTR cells, 300 pM BDNF [2]: 24 nM
pERK assay in U2OS TrkB/p75NTR cells, 150 pM BDNF [2]: 7.6 nM
Substance: TrkB-Fc (Sigma T8694) (from UniProt P15209 32-429) (Fc fusion)
